{"source": "patent US20080207488A1", "about": "“Method for Detecting Peptides Comprising a Cross-B Structure” (priority 2005, published 2008)", "key": {"[1]": {"experiment": "ThT fluorescence of LPS-protein mixtures", "type": "physicochemical", "settings": "for ThT fluorescence enhancement vs protein in buffer only: 1 mg ml^−1 protein", "description": "Fluorescence of ThT-protein/peptide adducts was measured as follows. […] Fluorescence was measured at 485 nm upon excitation at 435 nm. Background signals from buffer, buffer with ThT and protein/peptide solution without ThT were subtracted from corresponding measurements with protein solution incubated with ThT. […] Fluorescence was measured in triplicate on a Hitachi F-4500 fluorescence spectrophotometer (Ltd., Tokyo, Japan).\nSubsequently, the ability to enhance ThT fluorescence was determined with 40× diluted solution, as described above. […]"}, "[2]": {"system": "platelets", "experiment": "Platelet aggregation assay", "type": "cell-based, human", "settings": "512-fold diluted plasma spiked with 250 μg/ml BSA-AGE, tenfold diluted", "description": "In a next series of experiments, diluted plasma was enriched with a 250 μg/ml BSA-AGE spike and subsequently added to tPA F-biotin-Streptavidin-Sepharose. […] Results are compared to platelet activating properties of the spiked plasma before depletion of BSA-AGE.\nFreshly drawn human aspirin free blood was mixed gently with citrate buffer to avoid coagulation. Blood was spinned for 15′ at 150*g at 20° C. and supernatant was collected; platelet rich plasma (PRP) with an adjusted final platelet number of 200,000 platelets/μl. Platelets were kept at 37° C. for at least 30′, before use in the assays, to ensure that they were in the resting state. For the aggregometric assays, 270 μl platelet solution was added to a glass tube and prewarmed to 37° C. A stirring magnet was added and rotation was set to 900 rpm, and the apparatus (Whole-blood aggregometer, Chrono-log, Havertown, Pa., USA) was blanked. A final volume of 30 μl of tester solution was added, containing the agonist of interest (buffer, control, diluted plasma with BSA-AGE, before and after contacting tPA F-biotin-Streptavidin-Sepharose), prediluted in HEPES-Tyrode buffer pH 7.2. Aggregation was followed in time by measuring the absorbance of the solution, that will decrease in time upon platelet aggregation. […] Aggregation was recorded for 15′ and expressed as the percentage of the transmitted light (0-100%)."}, "[3]": {"experiment": "Congo red fluorescence", "type": "physicochemical", "settings": "marketed biopharmaceutical within expiry limits, five μL tested", "description": "Background signals from buffer, buffer with Congo red and protein/peptide solution without Congo red were subtracted from corresponding measurements with protein solution incubated with Congo red. Fluorescence was measured in triplicate on a Hitachi F-4500 fluorescence spectrophotometer (Ltd., Tokyo, Japan).\nFormulated protein therapeutics were obtained from the local hospital pharmacy and were used as supplied by the manufacturers. […] Lyophilized therapeutics were dissolved according to the manufacturers recommendations. […] Other protein therapeutics were only kept at 4° C., and assayed for the presence of cross-β structure conformation at shown time points. Enhancement in fluorescence of ThT and Congo red was measured with all formulated protein therapeutics. For this purpose, proteins were diluted to the indicated concentrations. […] Zinc-insulin was diluted tenfold in the activation assay, GH was diluted to a final concentration of 500 μg ml^−1. Activation of factor XII and prekallikrein by the therapeutics was tested in the chromogenic factor XII assay (see above). […] After coating, plates were blocked with Blocking Reagent (Roche Diagnostics, Almere, The Netherlands).\n(§1) Protein therapeutics were obtained from the local hospital pharmacy and analyzed within the expiry limits as stated by the manufacturers."}, "[4]": {"biological_target": "T1, tPA (Homo sapiens, UniProt P00750)", "T1 construct": "purchased Boehringer-Ingelheim (Actilyse, Alteplase)", "T1 sequence (P00750 36-562)": "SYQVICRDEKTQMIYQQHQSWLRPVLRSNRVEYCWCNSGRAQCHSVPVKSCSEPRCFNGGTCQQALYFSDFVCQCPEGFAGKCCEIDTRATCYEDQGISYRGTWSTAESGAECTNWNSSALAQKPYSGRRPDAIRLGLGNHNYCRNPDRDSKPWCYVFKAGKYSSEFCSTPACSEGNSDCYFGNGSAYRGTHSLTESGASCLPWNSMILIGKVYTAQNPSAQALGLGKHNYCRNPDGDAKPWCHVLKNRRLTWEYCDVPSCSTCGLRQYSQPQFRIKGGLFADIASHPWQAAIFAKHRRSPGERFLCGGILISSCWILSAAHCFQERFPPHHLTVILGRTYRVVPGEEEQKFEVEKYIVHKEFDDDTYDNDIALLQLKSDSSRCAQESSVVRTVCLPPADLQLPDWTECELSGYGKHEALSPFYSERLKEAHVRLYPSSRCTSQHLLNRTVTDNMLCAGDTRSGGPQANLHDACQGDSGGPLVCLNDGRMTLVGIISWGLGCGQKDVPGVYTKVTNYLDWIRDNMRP", "experiment": "tPA binding assay with immobilized biopharmaceuticals in an ELISA", "settings": "therapeutic coated 1:10; one-site binding fit", "description": "Nunc Immobilizer plates (Nalge Nunc, #436013, Rochester, N.Y., USA) were coated with 50 μL containing 5 μg/mL of sample protein (unless indicated otherwise) in 100 mM NaHCO3, pH 9.6, 0.05% m/v NaN3 for 1 hour at room temperature. Plates were washed twice with Tris buffered saline pH 7.2 containing 0.1% Tween20 (TBST) and blocked with PBS containing 1% Tween20 for 1 hour at room temperature. […] Plates were washed five times with TBST and incubated with peroxidase labeled anti-mouse immunoglobulins (RAMPO; DAKOCytomation, Glostrup, Denmark) diluted 1:3000 in PBST for 30 minutes at room temperature. Plates were washed five times with PBS 0.1% Tween20, and stained with 100 μL/well of tetramethyl-benzidine (TMB) substrate (Biosource Europe, Nivelles, Belgium). The reaction was terminated with 50 μL/well of 2 M H2SO4 and substrate conversion was read at 450 nm on a Spectramax340 microplate reader. Curves were fitted with a one-site binding model (GraphPad Prism version 4.02 for Windows, Graphpad Software, CA, USA) from which Kd and Bmax were determined.\nas §1"}}}
{"substance": "lysozyme: chicken egg-white lysozyme", "values": [{"measurement": "ThT fluorescence enhancement", "setting": "[1]; 200 μg ml^−1 LPS (FIG. 4D, E)", "value": "approximately 5 times"}, {"measurement": "ThT fluorescence enhancement", "setting": "[1]; 400 μg ml^−1 LPS (FIG. 4D, E)", "value": "~11", "unit": "times"}, {"measurement": "ThT fluorescence enhancement", "setting": "[1]; 600 μg ml^−1 LPS (FIG. 4D, E)", "value": "~18", "unit": "times"}, {"measurement": "ThT fluorescence enhancement", "setting": "[1]; 1 mg ml^−1 protein exposed to 600 μg ml^−1 LPS (FIG. 4C)", "value": "approximately 10 times"}, {"measurement": "ThT fluorescence enhancement vs protein in buffer only", "setting": "[1]; 10 μg ml^−1 LPS (FIG. 4B)", "value": 1.1, "unit": "times"}, {"measurement": "ThT fluorescence enhancement vs protein in buffer only", "setting": "[1]; 25 μg ml^−1 LPS (FIG. 4B)", "value": 1.3, "unit": "times"}, {"measurement": "ThT fluorescence enhancement vs protein in buffer only", "setting": "[1]; 100 μg ml^−1 LPS (FIG. 4B)", "value": 1.6, "unit": "times"}, {"measurement": "ThT fluorescence enhancement vs protein in buffer only", "setting": "[1]; 200 μg ml^−1 LPS (FIG. 4B)", "value": 2.3, "unit": "times"}, {"measurement": "ThT fluorescence enhancement vs protein in buffer only", "setting": "[1]; 600 μg ml^−1 LPS (FIG. 4B)", "value": 5.7, "unit": "times"}, {"measurement": "ThT fluorescence enhancement vs protein in buffer only", "setting": "[1]; 1200 μg ml^−1 LPS (FIG. 4B)", "value": 13.1, "unit": "times"}]}
{"substance": "albumin-AGE: advanced glycation end-product modified bovine serum albumin", "values": [{"measurement": "platelet aggregation", "setting": "[2]", "value": "Platelets readily aggregate"}]}
{"substance": "Abciximab: abciximab, an inhibitor of blood platelet aggregation (ReoPro, Centocor)", "values": [{"measurement": "Fluorescence (a.u. +/− SD) CR", "setting": "[3]", "value": "25 +/− 1 a.u."}, {"measurement": "tPA Binding Bmax (OD450 nm)", "setting": "[4]", "value": 0.5329, "unit": "OD450 nm"}]}
